# Patent publication US20220184120A1 (MINERVA BIOTECHNOLOGIES, published 2022)
# T1: PSMGFR peptide (Primary Sequence of the MUC1 Growth Factor Receptor)
# T1 construct: synthetic peptide immobilised on ELISA plates; also called MUC1* peptide; MUC1* extra cellular domain peptide
# T1 peptide: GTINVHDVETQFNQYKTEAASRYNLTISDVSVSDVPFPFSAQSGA
# T2: N+20/C-27 peptide (20 amino acids added onto the N-terminus and 27 deleted from the C-terminus of PSMGFR)
# T2 peptide: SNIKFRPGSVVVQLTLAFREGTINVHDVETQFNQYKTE
# T3: C-10 peptide (PSMGFR minus 10 amino acids from the C-terminus)
# T3 construct: also called C-10 PSMGFR; PSMGFR C-10
# T3 peptide: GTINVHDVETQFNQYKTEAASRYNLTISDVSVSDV
# T4: N+9/C-9 peptide (9 amino acids added onto the N-terminus and 9 deleted from the C-terminus of PSMGFR)
# T4 peptide: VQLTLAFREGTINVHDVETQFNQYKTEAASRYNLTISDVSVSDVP
# T5: NME7-AB (recombinant) (Homo sapiens (Human), UniProt Q9Y5B8 92-376)
# T5 construct: the entry ends in a His tag; also called NM23-H7
# T5 sequence: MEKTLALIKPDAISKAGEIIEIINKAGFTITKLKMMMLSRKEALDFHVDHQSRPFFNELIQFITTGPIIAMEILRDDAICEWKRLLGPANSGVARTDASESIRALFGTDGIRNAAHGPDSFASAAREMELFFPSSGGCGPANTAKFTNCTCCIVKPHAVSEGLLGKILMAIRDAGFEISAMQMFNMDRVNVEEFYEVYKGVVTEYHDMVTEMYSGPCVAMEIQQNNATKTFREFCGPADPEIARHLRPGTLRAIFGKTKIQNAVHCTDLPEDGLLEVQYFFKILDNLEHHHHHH
# T6: N-19/C-5 peptide
# T6 peptide: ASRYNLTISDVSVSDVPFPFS
# T7: N-19 peptide
# T7 peptide: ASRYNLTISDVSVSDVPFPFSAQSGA
# T8: N-26 peptide
# T8 peptide: ISDVSVSDVPFPFSAQSGA
# T9: N-30 peptide
# T9 peptide: SVSDVPFPFSAQSGA
# T10: N-10/C-5 peptide
# T10 peptide: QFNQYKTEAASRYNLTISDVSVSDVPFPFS
# B1: MN-C2 mouse monoclonal anti-MUC1* antibody (antibody, V domains shown)
# VH: EVQLEESGGGLVKPGGSLKLSCAASGFTFSGYAMSWVRQTPEKRLEWVATISSGGTYIYYPDSVKGRFTISRDNAKNTLYLQMSSLRSEDTAMYYCARLGGDNYYEYFDVWGAGTTVTVSS
# VL: DIVITQSTASLGVSLGQRATISCRASKSVSTSGYSYMHWYQQRPGQPPKLLIYLASNLESGVPARFSGSGSGTDFTLNIHPVEEEDAATYYCQHSRELPFTFGGGTKLEIKR
# notes: mouse monoclonal raised against PSMGFR; also called Min-C2
# B2: MN-C3 mouse monoclonal anti-MUC1* antibody (antibody, V domains shown)
# VH: QVQLQQSGPELVRPGVSVKISCKGSGYRFTDYAMNWVKQSHAKSLEWIGVISTFSGNTNFNQKFKGKATMTVDKSSSTAYMELARLTSEDSAMYYCARSDYYGPYFDYWGQGTTLTVSS
# VL: DVLMTQTPLSLPVSLGDQASISCRSSQTIVHSNGNTYLEWYLQKPGQSPKLLIYKVSNRFSGVPDRFSGSGSGTDFTLKINRVEAEDLGVYYCFQGSHVPFTFGSGTKLEIK
# notes: mouse monoclonal raised against PSMGFR; also called Min-C3
# B3: N-10 peptide (PSMGFR minus 10 amino acids from the N-terminus) (peptide)
# peptide: QFNQYKTEAASRYNLTISDVSVSDVPFPFSAQSGA
# notes: also called N-10 PSMGFR; PSMGFR N-10
# B4: 1E4 mouse monoclonal antibody (antibody, V domains shown)
# VH: QVQLQQSGAELVRPGSSVKISCKASGYAFSTYWMNWVKQRPGQGLEWIGQIYPGDSDTNYNGKFKGKATLTADKSSNTAYMQLSSLTSEDSAVFFCARGNHASMDYWGQGTSVTVSS
# VL: DVVMTQTPLSLPVSLGDQASISCRSSQSLVHSNGNTYLHWYLQKPGQSPKLLIYKVSNRFSGVPDRFSGSGSGTDFTLKISRVEAEDLGVYFCSQKTHVPWTFGGGTKLEIK
# notes: raised against N+20/C-27; also called MN-1E4; N+20/C-27 antibody 1E4
# B5: 20A10 mouse monoclonal antibody (antibody, V domains shown)
# VH: EVMLVESGGGLVKPGGSLKLSCAASGFTFSTYAMSWIRQTPEKRLEWVASIGRAGSTYYSDSVKGRFTISRDNVRNILYLQMSSLRSEDTAMYYCARGPIYNDYDEFAYWGQGTLVTVSA
# VL: NIMMTQSPSSLAVSAGEKVTMSCKSSQSVLYSSNQKNYLAWYQQKPGQSPKLLIYWASTRESGVPDRFTGSGSGTDFTLTISSVQAEDLAVYYCHQYLSSLTFGAGTKLELK
# notes: raised against PSMGFR; also called MN-20A10; anti-PSMGFR antibody 20A10
# B6: 18B4 mouse monoclonal antibody (antibody, V domains shown)
# VH: EVKLEESGGGLVQPGGSMKLSCAASGFTFNDAWMDWVRQSPEKGLEWVAEIRSTANIHTTYYAESVQGRFTISRDDSKSSVYLQMNSLRAEDTGIYYCTPLLYGFAYWGQGTLVTVSA
# VL: DVVMTQSPLSLPVSLGDQASISCRTSQSLVHSNGNTYLHWHLQKPGQSPKVLIYKVSSRFSGVPDRFSGSGSGTDFTLKISRVEAEDLGVYFCSQNTHVPYTFGGGTKLEIK
# notes: raised against PSMGFR; also called anti-PSMGFR antibody 18B4
# B7: 3C5 mouse monoclonal antibody (antibody, V domains shown)
# VH: QIQLVQSGPELKKPGETVKISCKASGYTFTNYGMNWVKQAPGKGLKWMGWINTYTGKPTYADDFKGRFAFSLETSASTAYLQINNLKNEDTATYFCARGGLDGYYGYWGQGTTLTVSS
# VL: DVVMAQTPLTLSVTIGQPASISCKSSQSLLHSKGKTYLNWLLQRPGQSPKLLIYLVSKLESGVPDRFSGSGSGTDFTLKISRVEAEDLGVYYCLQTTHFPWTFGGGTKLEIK
# notes: raised against N+9/C-9; also called N+9/C-9 antibody 3C5
# B8: 17H6 mouse monoclonal antibody (antibody, V domains shown)
# VH: EVKLVESGGGLVQPGGSLRLSCATSGFTFTDYYMSWVRQPPRKALEWLGFIRNKANGYTAEYSASVKGRFTISRDVSQNLLYLQMNILRAEDSATYYCAKDYYGSNPAWFAYWGQGTLVTVSA
# VL: DILMTQTPLSLPVSLGDQASISCRSSQSIVHSSGNTFLEWYLQKPGQSPKLLIYKVSNRFSGVPDRFSGSGSGIDFTLKISRVEAEDLGVYYCFQGSHVPFTFGSGTKLEIK
# notes: raised against N+9/C-9; also called N+9/C-9 antibody 17H6
# Assays:
# [1] = target: T1, PSMGFR peptide (Primary Sequence of the …); assay: ELISA (FIG. 2B)
# [2] = target: T2, N+20/C-27 peptide (20 amino acids added …); assay: ELISA (FIG. 63)
# Protocol: (§1) ELISA assays were performed to determine if, in addition to recognizing their immunizing peptide, they recognized PSMGFR, N−10 or C−10. In addition, they were tested for their ability to bind to N+20/C−27, N+9/C−9. We first did the ELISA assay on our set of reference antibodies, MNC2, MNE6, which we know are cancer-specific plus MNC3, which we know recognizes stem cells and progenitor cells (FIG. 63A-63B). None of the reference antibodies bound to the N+20/C−27 peptide. MNC2 and MNE6 cannot bind to PSMGFR peptides with 27, 10 or 9 C-terminal deletions, however, MNC3 binds to C−10 and to N+9/C−9 peptides.
# [3] = target: T3, C-10 peptide (PSMGFR minus 10 amino …); assay: ELISA (FIG. 64A)
# [4] = target: T4, N+9/C-9 peptide (9 amino acids added …); assay: ELISA (FIG. 64A)
# [5] = target: B3; assay: ELISA (FIG. 2B-2C)
# [6] = target: T1, PSMGFR peptide (Primary Sequence of the …); assay: ELISA (FIG. 9)
# [7] = target: T3, C-10 peptide (PSMGFR minus 10 amino …); assay: ELISA (FIG. 2E)
# Protocol: (§2) FIGS. 2A-2I show results of ELISA assays. MUC1* peptides PSMGFR, PSMGFR minus 10 amino acids from the N-terminus aka N−10, or PSMGFR minus 10 amino acids from the C-terminus, aka C−10 are immobilized on the plate and the following are assayed for binding: NME7-AB (FIG. 2A), MN-C2 monoclonal antibody (FIG. 2B), MN-E6 monoclonal antibody (FIG. 2C), or dimeric NME1 (FIG. 2D). […] MUC1* peptides PSMGFR minus 10 amino acids from the N-terminus aka N−10, or PSMGFR minus 10 amino acids from the C-terminus, aka C−10, are immobilized on the plate and the following are assayed for binding: MN-C3 (FIG. 2E) and MN-C8 (FIG. 2F).
# [8] = target: T4, N+9/C-9 peptide (9 amino acids added …); assay: ELISA (FIG. 63)
# Protocol: as §1
# [9] = target: B3; assay: Table 4 criterion 1, Binds N-10
# NME7-AB (recombinant) = target: T5, NME7-AB (recombinant); assay: ELISA (FIG. 2A-2D)
# Protocol: as §2
# [10] = target: B3; assay: ELISA
# [11] = target: T3, C-10 peptide (PSMGFR minus 10 amino …); assay: ELISA
# [12] = target: T1, PSMGFR peptide (Primary Sequence of the …); assay: ELISA (FIG. 65)
# [13] = target: T2, N+20/C-27 peptide (20 amino acids added …); assay: ELISA (FIG. 65A)
# Source text: The antibodies being tested were derived from animals immunized with the N+20/C−27 peptide. The first selection criteria was to confirm that the antibodies bound to the immunizing N+20/C−27 peptide. […] Although these antibodies were raised against the N+20/C−27 peptide, all but one, 45C11, still bind to the PSMGFR peptide. […] 1E4 was able to bind to the N+20/C−27 peptide, the PSMGFR and the N−10 peptide, consistent with the idea that its epitope must lie within the […] sequence. […] The color of the bars for each antibody in the ELISA graph are color coded to match the deductive cognate sequence, or a portion thereof, of that antibody.
# This same ELISA assay was performed on the antibodies of the invention (FIG. 64-66 and FIG. 201). Note that only 20A10 exactly matches the binding profile of MNC2 and MNE6. 25E6, 28F9 and 18G12 are all able to bind to the N−10 peptide. 18B4 is the only antibody raised against the PSMGFR peptide that requires the 10 most N-terminal amino acids of the peptide. The color of the bars for each antibody in the ELISA graph are color coded to match the deductive cognate sequence, or a portion thereof, of that antibody. In addition, another set of antibodies was assayed by ELISA (FIG. 201). Of this set, B12, B2, B7, B9, 8C7F3, and H11 bound to the PSMGFR peptide, bound to the N−10 peptide, but not to the C−10 peptide (FIG. 201).
# [14] = target: T1, PSMGFR peptide (Primary Sequence of the …); assay: ELISA
# [15] = target: T2, N+20/C-27 peptide (20 amino acids added …); assay: ELISA (FIG. 64A)
# [16] = target: T4, N+9/C-9 peptide (9 amino acids added …); assay: ELISA (FIG. 66A)
# N-19/C-5 peptide = target: T6, N-19/C-5 peptide; assay: ELISA (FIG. 69)
# Protocol: (§3) In order to further refine the epitopes to which each antibody binds, a series of smaller peptides derived from the PSMGFR sequence were synthesized: N−30 (SEQ ID NO:7), N−26 (SEQ ID NO:6), N−19 (SEQ ID NO:4), N−10/C−5 (SEQ ID NO:8), N−19/C−5 (SEQ ID NO:9). Each of the antibodies was tested in an ELISA assay for their ability to bind to this refined set of peptides, plus PSMGFR, N−10 and C−10 peptides (FIG. 67-69).
# [17] = target: B3; assay: ELISA (FIG. 69)
# Protocol: as §3
# N-19 peptide = target: T7, N-19 peptide; assay: ELISA (FIG. 69)
# Protocol: as §3
# N-26 peptide = target: T8, N-26 peptide; assay: ELISA (FIG. 69)
# Protocol: as §3
# N-30 peptide = target: T9, N-30 peptide; assay: ELISA (FIG. 69)
# Protocol: as §3
# N-10/C-5 peptide = target: T10, N-10/C-5 peptide; assay: ELISA (FIG. 69)
# Protocol: as §3
binder,measurement,setting,value
B1,binding result,[1],binds
same,binding result,[2],no binding
same,binding result,[3],no binding
same,binding result,[4],no binding
same,binding result,[5],binds
B2,binding result,[6],binds
same,binding result,[7],binds
same,binding result,[2],no binding
same,binding result,[8],binds
same,binding result,[9],binds
B3,binding result,NME7-AB (recombinant),binds
B4,binding result,[10],binds
same,binding result,[11],binds
same,binding result,[12],binds
same,binding result,[13],binds
B5,binding result,[14],binds
same,binding result,[10],binds
same,binding result,[3],no binding
same,binding result,[4],no binding
B6,binding result,[14],binds
same,binding result,[10],no binding
same,binding result,[11],binds
same,binding result,[15],binds
same,binding result,[4],binds
B7,binding result,[10],no binding
same,binding result,[16],binds
B8,binding result,N-19/C-5 peptide,no binding
same,binding result,[17],no binding
same,binding result,N-19 peptide,no binding
same,binding result,N-26 peptide,no binding
same,binding result,N-30 peptide,no binding
same,binding result,N-10/C-5 peptide,no binding
